Source: patent EP1876240B1

Assays:
[1] = target: rat GPVI-human Fc (rGPVI-hFc) (rat; mouse); assay: ELISA on immobilized antigen; control
[2] = target: human GPVI extracellular region-human Fc fusion protein (hGPVI-hFc) (human); assay: ELISA on immobilized antigen; control
Chain of human GPVI extracellular region-human Fc fusion protein (hGPVI-hFc) (human) (chain, as listed by the source limits assumed, form in doubt): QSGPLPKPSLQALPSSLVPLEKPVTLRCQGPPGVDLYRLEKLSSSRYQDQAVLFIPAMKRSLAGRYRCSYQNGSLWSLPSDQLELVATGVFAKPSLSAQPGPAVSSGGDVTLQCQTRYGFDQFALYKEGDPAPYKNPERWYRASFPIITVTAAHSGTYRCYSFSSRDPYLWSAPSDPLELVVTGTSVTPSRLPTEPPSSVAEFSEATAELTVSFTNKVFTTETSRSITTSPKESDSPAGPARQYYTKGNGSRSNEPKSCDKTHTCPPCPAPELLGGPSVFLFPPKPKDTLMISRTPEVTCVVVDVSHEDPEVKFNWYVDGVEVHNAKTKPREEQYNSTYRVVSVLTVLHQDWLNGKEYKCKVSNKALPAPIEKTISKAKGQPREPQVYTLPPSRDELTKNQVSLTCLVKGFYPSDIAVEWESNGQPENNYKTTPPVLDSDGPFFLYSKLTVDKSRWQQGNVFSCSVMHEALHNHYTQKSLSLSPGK

Substance: Normal Mouse IgG (antibody)
- absorbance (ELISA) [1]: 0.123
- absorbance (ELISA) [2]: 0.026
